From the RNAGym collection of RNA variant scans (doi:10.7554/elife.90254)

B1: LINE1-full (parent)
chain: UACGUAGGUGGUUUUCCCCUGAUAGUGCUAAGGGGGCCUGGAAGUUUGGACUGGGCAGAGCUCAACACAGCGUGGCAAAGUGGCUGUGGCUAGACUGCCUCUCUGGAUUCCUCGUCACUCAGCAGGGCAUCUCUGAGAGAAAUGCC

Variants of: B1
Assay: self-cleavage, relative activity (ratio to wild type); higher = more cleavage; in vitro, sequencing; the parent is a self-cleaving ribozyme

Row | Variant | self-cleavage
1 | U26G G55A | 0.21
2 | C28A U134C | 1.92
3 | U26G G34A | 0.93
4 | U26A A78U | 1.61
5 | U26A A78G | 0.74
6 | U26C C38A | 1.28
7 | U26C U47A | 1.16
8 | U29A A141G | 1.15
9 | U29C A107U | 1.21
10 | U29C A107G | 0.7
11 | U29A U91C | 0.4
12 | U29A A142C | 0.56
13 | U29A A142G | 1.04
14 | U29A U143C | 1.16
15 | U29A U143A | 0.84
16 | U26C A140U | 0.59
17 | U26C U85C | 0.27
18 | U26C U85A | 0.11
19 | G27U C84A | 0.1
20 | U26C C63U | 0.66
21 | U26C U46G | 1.62
22 | U26C U46C | 1.71
23 | U29C A50U | 1.14
24 | U26A A124C | 1.4

Row | Variant | self-cleavage
25 | U26C U29A | 1.35
26 | G27U U39C | 0.63
27 | U26C G53U | 1.2
28 | U29C A121U | 1.5
29 | U29C A121C | 1.93
30 | U29A U130C | 0.81
31 | U29A U102C | 1.2
32 | U26G U104C | 0.81
33 | U26A A140G | 1.02
34 | C28U U130C | 0.7
35 | G27U U134A | 1.29
36 | G27C U112G | 1.11
37 | U26C A107C | 1.89
38 | U29A G48A | 1.01
39 | U26A A138U | 0.78
40 | U26A A138G | 1.25
41 | U26A C103U | 0.98
42 | U29C C120A | 1.24
43 | U26C A92U | 0.81
44 | U26A U102G | 0.38
45 | U26A U102A | 1.01
46 | C28A U115C | 1.07
47 | U29C A65G | 0.09
48 | U29C A65C | 0.1

Row | Variant | self-cleavage
49 | U29A U134C | 0.87
50 | U26G U91C | 0.44
51 | U26G C38U | 0.91
52 | U26C U62A | 0.02
53 | U26C U62G | 0.07
54 | G27A U112C | 1.7
55 | U26G U85C | 0.14
56 | U29C A78G | 1.17
57 | U29C A67G | 0.76
58 | U29C A67U | 0.12
59 | U29C A64G | 0.38
60 | U29C A64C | 0.61
61 | U26A U85A | 0.16
62 | U26A U85C | 0.17
63 | U26A A79G | 0.75
64 | U26G G125U | 1.59
65 | U26G C111U | 0.63
66 | U26A U52A | 0.81
67 | U26A C128U | 0.72
68 | C28A A94G | 0
69 | G25U U39A | 0.31
70 | G27C U109C | 0.92
71 | U26A C76A | 1.51
72 | U29C C66U | 0.07

Row | Variant | self-cleavage
73 | U26A G58U | 0.05
74 | U26A A136U | 1.2
75 | G27A A136G | 0.93
76 | C28U A43C | 1.2
77 | U26C U130G | 1.61
78 | U26A A141G | 1.11
79 | G27A U87C | 0.19
80 | C28U A141U | 0.54
81 | U26A C66A | 0.05
82 | U29C A124C | 1.23
83 | U29C A124G | 1.02
84 | U29C A124U | 1.04
85 | U29A U47A | 1.6
86 | U26C A94G | 0.39
87 | U26C A94U | 0.28
88 | U26C A67U | 0.06
89 | C28U A138G | 1.01
90 | U26A U91C | 0.32
91 | U26A U132A | 1.34
92 | U26C G89A | 0.03
93 | U26C G35A | 1.26
94 | C28A U102A | 1.12
95 | U29C | 1.28
96 | U29A | 1.23

Row | Variant | self-cleavage
97 | G27A C98A | 0.14
98 | U26C A42G | 1.06
99 | U26G U87A | 0
100 | U26G U87C | 0.3
101 | C28U A57U | 0.11
102 | U26C A124G | 0.64
103 | U26C A129G | 1.41
104 | U29C A140G | 1.2
105 | U26G C110U | 1.75
106 | U26A A121U | 1.11
107 | U26A A121G | 1.46
108 | C28G U85A | 0.23
109 | U26C U132C | 1.62
110 | C28A A117G | 0.74
111 | U29C A129G | 2.12
112 | U26G U100C | 1.22
113 | U26C G58U | 0.04
114 | U26G U119C | 0.98
115 | U26C C101A | 0.85
116 | C28U A92G | 0.11
117 | U26A C99U | 0.37
118 | U26A C99A | 0.09
119 | G27A U132C | 1.27
120 | U26G A117U | 1.3

Row | Variant | self-cleavage
121 | U26A U100C | 1.07
122 | U26A U100G | 1.31
123 | U29A U112C | 0.43
124 | U26C G105A | 1.32
125 | G27A G88A | 0.04
126 | C28A A78G | 0.61
127 | U29C A136U | 1.54
128 | U26A C110A | 0.95
129 | U29A G54A | 0.75
130 | U26C G93A | 0.03
131 | U26C G93C | 0.17
132 | U29C C63A | 0.07
133 | U29C C63U | 0.48
134 | G27A G54A | 0.59
135 | U26G G27A | 1.01
136 | U26C A64G | 0.39
137 | U26A G74U | 1.94
138 | U26A A43G | 0.97
139 | U26A A43U | 0.89
140 | G27A A42U | 0.99
141 | U26A A92U | 0.61
142 | C28U A140U | 0.95
143 | U26A U115C | 1.29
144 | G27A U143C | 1.38

Row | Variant | self-cleavage
145 | U26C U112C | 1.36
146 | G27A A140U | 1.28
147 | C28A G88A | 0
148 | U26C G144C | 1.68
149 | U29A G89U | 0.04
150 | U29A A117U | 1.06
151 | U26G G60C | 0.07
152 | U26A G88A | 0.07
153 | G27A G55A | 0.21
154 | U26A G82A | 1.18
155 | U26A U29A | 1.12
156 | U26A U29C | 1.44
157 | U26A C116U | 0.99
158 | U29A U52C | 1.3
159 | U26C U91C | 0.73
160 | U26A G72U | 0.77
161 | U26C C133U | 0.98
162 | C28A G126A | 0.66
163 | U29A A94G | 0.54
164 | G27A U108C | 1.15
165 | C28G U45C | 1.09
166 | G27A A129G | 2.07
167 | U26C U39C | 0.9
